Reference: US7041458B2, “Methods and reagents for determining protein S” (priority 1996, dated 2006)
Read-outs that look alike come from different tables or passages of the source. Bridges are numbered along the chain shown (N, C = ends). Where no end group is shown, it is not given here.

Legend:
[1] = molecular target: T1, protein S-C4BP interaction (Homo sapiens, UniProt P20851); assay: Peptide inhibition of the protein S-C4BP interaction by surface plasmon resonance (BIAcore, immobilized C4BP); type: binding; conditions: for effect on binding of human protein S to C4BP (SPR response): 50 nM protein S, peptide up to 100 μM (2000-fold excess); for inhibition of the protein S-C4BP interaction (summary of the above tests): up to 2000-fold excess over protein S; for IC50: 50 nM human protein S, immobilized C4BP, read-out: half maximum inhibition, peptide concentration
T1 construct: C4BPβ was first isolated from human plasma in the form of the protein S-C4BP complex; from tissue; host or cells: human plasma
T1 sequence (P20851 18-252): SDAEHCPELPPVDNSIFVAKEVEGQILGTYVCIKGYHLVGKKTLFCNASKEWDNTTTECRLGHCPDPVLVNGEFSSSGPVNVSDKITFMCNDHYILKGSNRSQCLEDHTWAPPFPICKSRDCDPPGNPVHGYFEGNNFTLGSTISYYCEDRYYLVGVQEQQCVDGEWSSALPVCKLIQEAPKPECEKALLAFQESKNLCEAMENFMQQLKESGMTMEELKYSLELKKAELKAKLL
T1 sequence (P04003 49-597 partner): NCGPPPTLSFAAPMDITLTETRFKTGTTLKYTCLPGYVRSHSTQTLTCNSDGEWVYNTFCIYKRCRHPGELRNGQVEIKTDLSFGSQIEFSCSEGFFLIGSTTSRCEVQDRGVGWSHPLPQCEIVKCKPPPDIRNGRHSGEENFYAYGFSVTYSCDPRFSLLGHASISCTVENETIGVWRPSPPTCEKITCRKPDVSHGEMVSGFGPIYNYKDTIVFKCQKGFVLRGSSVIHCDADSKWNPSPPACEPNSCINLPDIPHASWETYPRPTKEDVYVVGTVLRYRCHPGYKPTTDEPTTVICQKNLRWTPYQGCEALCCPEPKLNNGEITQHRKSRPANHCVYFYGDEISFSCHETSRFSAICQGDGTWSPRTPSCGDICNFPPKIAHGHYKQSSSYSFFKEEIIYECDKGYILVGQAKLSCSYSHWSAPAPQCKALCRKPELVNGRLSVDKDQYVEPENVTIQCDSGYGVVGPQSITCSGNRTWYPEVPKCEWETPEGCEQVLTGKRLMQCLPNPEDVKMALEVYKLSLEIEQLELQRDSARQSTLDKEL
Protocol: E. Peptide Inhibition of the Protein S-C4BP Interaction According to Surface Plasmon Resonance Studies.
The surface plasmon resonance studies were performed using a BIAcore™ apparatus from Pharmacia Biosensor AB. Immobilization of C4BP to the dextran coated gold surface of a sensorchip was performed at a flow rate of 5 μl/min, using HC as flow buffer. Equal volumes of 0.1 M NHS and 0.1 M EDC were first mixed, whereafter 30 μl of the mixture was flown over the sensorchip surface to activate the carboxymethylated dextran. C4BP was then injected over the sensorchip (40 μl of a 60 μg/ml solution in 10 mM NaOAc at pH 4.75), whereafter unreacted NHS-ester groups were blocked by 15 μl 1M ethanolamine (pH 8.5). The system was regenerated by addition of 15 μl 0.1 M HCl, which removes all non-covalently bound molecules. The immobilized amount of C4BP was 8000 RU. Protein S association was monitored with 50 nM human protein S in HC buffer in a continuous flow of 1 μl per minute during 45 minutes. The ability of each peptide to inhibit the protein S binding was studied by following the association to C4BP for mixtures of protein S and peptide. In BIAcore™, the total amount of bound material is measured, and the peptides are 25-fold smaller than protein S, inhibition of protein S-binding by peptide binding will drastically lower the observed response during the association phase. The percent protein S bound, X, was calculated as X=(S−0.04Smax)/0.96Smax where S is the measured response and Smax is the response obtained in the absence of peptide.
As disclosed in Section E, the ability of the synthetic peptides to inhibit the binding of human protein S to C4BP was also studied using surface plasmon resonance on a BIA-core™ system.
(§1) In these figures, peptide inhibition of the protein S-C4BP interaction is shown as the amount of protein S bound (relative to the amount bound in the absence of peptide) versus concentration of the nine peptides listed in Table 1: (o) SL1, (♦) SL2, (□) SL3, (+) SL4, (⋄) SL5, (●) SL6, (▾) SL7, (Δ) BD4 & (∇) BD6. In FIG. 5A, the result from an equilibrium binding assay using immobilized C4BP in microtiter wells and radiolabelled human protein S is shown. […] In FIG. 5B, the result from surface plasmon resonance assay on a BIAcore™ sensorchip is shown. The amount of protein S bound, X, was calculated from the observed signal intensity, S, compared to the maximum signal intensity in the absence of peptide Smax, as […].

C4BP [2] = molecular target: T2, C4BP (Homo sapiens, UniProt P20851); conditions: Ca2+-free; read-out: dissociation constant KD of the complex with C4BP; cited from earlier work
T2 sequence (P20851 18-252): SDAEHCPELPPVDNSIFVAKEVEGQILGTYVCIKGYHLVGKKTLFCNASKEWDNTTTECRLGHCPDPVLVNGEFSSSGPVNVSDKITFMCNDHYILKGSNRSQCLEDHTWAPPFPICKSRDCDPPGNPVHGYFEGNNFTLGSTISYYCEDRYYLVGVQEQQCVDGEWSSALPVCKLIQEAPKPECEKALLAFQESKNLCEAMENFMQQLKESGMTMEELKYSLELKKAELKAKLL
T2 sequence (P04003 49-597 partner): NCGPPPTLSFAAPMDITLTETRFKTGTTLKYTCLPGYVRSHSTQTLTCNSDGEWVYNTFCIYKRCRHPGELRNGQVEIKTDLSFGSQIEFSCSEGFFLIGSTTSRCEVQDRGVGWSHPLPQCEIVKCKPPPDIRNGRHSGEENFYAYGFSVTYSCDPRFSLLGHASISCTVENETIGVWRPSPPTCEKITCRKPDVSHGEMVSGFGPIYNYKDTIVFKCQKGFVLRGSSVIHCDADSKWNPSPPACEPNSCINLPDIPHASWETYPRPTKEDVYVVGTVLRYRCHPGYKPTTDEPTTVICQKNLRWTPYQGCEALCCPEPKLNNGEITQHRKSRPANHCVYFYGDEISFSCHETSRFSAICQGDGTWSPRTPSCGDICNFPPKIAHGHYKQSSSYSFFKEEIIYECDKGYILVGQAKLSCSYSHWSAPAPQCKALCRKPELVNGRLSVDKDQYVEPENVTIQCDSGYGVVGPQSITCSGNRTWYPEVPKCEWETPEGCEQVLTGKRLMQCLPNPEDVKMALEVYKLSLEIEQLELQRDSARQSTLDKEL

[3] = molecular target: T1, protein S-C4BP interaction; assay: Peptide inhibition of the protein S-C4BP interaction in microtiter plates (equilibrium binding assay, 125I-labelled protein S tracer, immobilized C4BP); conditions: displacement of 125I-labelled protein S from immobilized C4BP, EDTA buffer; read-out: half-maximum inhibition
Protocol: D. Peptide Inhibition of the Protein S-C4BP Interaction in Microtiter Plates.
Microtiter plates were coated with C4BP, 50 μl/well, 10 μg/ml in 0.075 M sodium carbonate buffer, pH 9.6. The plates were incubated over night at 4° C. and then washed with TBS, pH 7.5, containing 0.1% Tween 20. […] The wells were then washed and the amount of bound protein S detected using a γ-counter.
As disclosed in Section D, the synthetic peptides were tested for their ability to displace binding of a ^125I-labelled protein S tracer to immobilized C4BP (FIG. 5A).
as §1

C4BP [4] = molecular target: T2, C4BP; assay: Fluorescence polarization titration of peptides with C4BP (results not shown); type: binding; conditions: read-out: dissociation constant KD of the peptide-C4BP complex
Source text: The difference in KD observed for the peptide and protein might in part be due to post translational modification of the protein.

LVTVEKGSYYPGSGIAQ [SL5]
effect on binding of human protein S to C4BP (SPR response) [1]: the same response was observed as with protein S alone

LDGCIRSWNLMKQGASGIKEIIQEKQNKHCLVT (disulfide 4-30 (inferred)) [BD4, reference compound]
effect on binding of human protein S to C4BP (SPR response) [1]: the same response was observed as with protein S alone | inhibition of the protein S-C4BP interaction (summary of the above tests) [1]: gave no inhibitory effect | inhibition of the protein S-C4BP interaction (summary of the above tests) ([1]; listed as 405–437): did not show any inhibitory effect

plasma purified human protein S: plasma purified human protein S, unlabelled competitor of radiolabelled protein S
Kd (C4BP [2]): 6.5 nM

LVTVEKGSYYPGSGIAQFHIDYNNVSSAEGWHVN [SL7]
IC50 [3]: 100 to 200 µM | Kd (C4BP [4]): ≤ 1000 nM | IC50 [1]: 30 to 120 µM

KPENGLLETKVYFAGFPRK [SL1]
effect on binding of human protein S to C4BP (SPR response) [1]: the same response was observed as with protein S alone

EKGSYYPGSGIAQFHIDYNNVS [SL2]
IC50 [3]: 100 to 200 µM | Kd (C4BP [4]): ≤ 1000 nM | IC50 [1]: 30 to 120 µM

YNGCMEVNINGVQLDLDEAISKHNDIRAHSCPSV (disulfide 4-31 (inferred)) [BD6, reference compound]
effect on binding of human protein S to C4BP (SPR response) [1]: the same response was observed as with protein S alone | inhibition of the protein S-C4BP interaction (summary of the above tests) [1]: gave no inhibitory effect | inhibition of the protein S-C4BP interaction (summary of the above tests) ([1]; listed as 595–628): did not show any inhibitory effect
